Publication PMC3348139

How the values were obtained:
[1] = target: A331P human cardiac actin (A331P ACTC) (human); assay: pyrene-actin polymerisation assay (critical concentration); actin in G-buffer mixed with 2.5% pyrene-labeled alpha-skeletal actin; polymerization buffer 25 mM Tris pH 8.0, 50 mM KCl, 1 mM EGTA, 2 mM MgCl2, 0.1 mM ATP; Cc is the x-intercept of the change in pyrene fluorescence against actin concentration; monomer to filament
DNase-I = DNase-I (UniProt P00639)
[2] = target: R312H human cardiac actin (R312H ACTC) (human); assay: pyrene-actin polymerisation assay (critical concentration); actin in G-buffer mixed with 2.5% pyrene-labeled alpha-skeletal actin; polymerization buffer 25 mM Tris pH 8.0, 50 mM KCl, 1 mM EGTA, 2 mM MgCl2, 0.1 mM ATP; Cc is the x-intercept of the change in pyrene fluorescence against actin concentration; monomer to filament
[3] = target: M305L human cardiac actin (M305L ACTC) (human); assay: as above
[4] = target: E361G human cardiac actin (E361G ACTC) (human); assay: as above
[5] = target: Y166C human cardiac actin (Y166C ACTC) (human); assay: as above
[6] = target: wildtype human cardiac actin (WT ACTC) (human) (UniProt P68032); assay: as above
[7] = target: E99K human cardiac actin (E99K ACTC) (human); assay: as above
[8] = target: A230V human cardiac actin (A230V ACTC) (human); assay: as above

Sequence of DNase-I (P00639 23-282): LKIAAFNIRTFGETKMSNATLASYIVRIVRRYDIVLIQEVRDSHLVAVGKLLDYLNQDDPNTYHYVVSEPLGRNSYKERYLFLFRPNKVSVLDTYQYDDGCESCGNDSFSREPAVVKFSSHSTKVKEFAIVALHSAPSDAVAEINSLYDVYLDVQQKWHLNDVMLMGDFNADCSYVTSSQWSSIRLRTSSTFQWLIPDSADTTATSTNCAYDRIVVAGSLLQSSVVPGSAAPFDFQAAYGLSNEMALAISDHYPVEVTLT

“A331P human cardiac actin (A331P ACTC) (natural protein)” was tested, and the Cc (critical concentration of polymerisation) [1] was 2.95 µM and the IC50 of inhibition of DNase-I activity (A260 with salmon sperm DNA; 0 to 100 nM ACTC, 15.4 nM DNase-I) (DNase-I) was 26 nM.

“R312H human cardiac actin (R312H ACTC) (natural protein)” showed a Cc (critical concentration of polymerisation) [2] of 4.75 µM and an IC50 of inhibition of DNase-I activity (A260 with salmon sperm DNA; 0 to 100 nM ACTC, 15.4 nM DNase-I); the value rose on later days after purification (DNase-I) of 36.7 nM.

With “M305L human cardiac actin (M305L ACTC) (natural protein)” the Cc (critical concentration of polymerisation) [3] was 2.21 µM and the IC50 of inhibition of DNase-I activity (A260 with salmon sperm DNA; 0 to 100 nM ACTC, 15.4 nM DNase-I) (DNase-I) was 17 nM.

In the case of “E361G human cardiac actin (E361G ACTC) (natural protein)”, the Cc (critical concentration of polymerisation) [4] was 0.58 µM and the IC50 of inhibition of DNase-I activity (A260 with salmon sperm DNA; 0 to 100 nM ACTC, 15.4 nM DNase-I) (DNase-I) was 16.8 nM.

Substance “Y166C human cardiac actin (Y166C ACTC) (natural protein)” has a Cc (critical concentration of polymerisation) [5] of 2.67 µM and an IC50 of inhibition of DNase-I activity (A260 with salmon sperm DNA; 0 to 100 nM ACTC, 15.4 nM DNase-I) (DNase-I) of 24.6 nM.

“wildtype human cardiac actin (WT ACTC) (from UniProt P68032 1-377) (natural protein)” showed a Cc (critical concentration of polymerisation) [6] of 0.28 µM and an IC50 of inhibition of DNase-I activity (A260 with salmon sperm DNA; 0 to 100 nM ACTC, 15.4 nM DNase-I) (DNase-I) of 13.2 nM.

With “E99K human cardiac actin (E99K ACTC) (natural protein)” the Cc (critical concentration of polymerisation) [7] was 1.67 µM and the IC50 of inhibition of DNase-I activity (A260 with salmon sperm DNA; 0 to 100 nM ACTC, 15.4 nM DNase-I) (DNase-I) was 25.7 nM.

With “A230V human cardiac actin (A230V ACTC) (natural protein)” the Cc (critical concentration of polymerisation) [8] was 2.11 µM and the IC50 of inhibition of DNase-I activity (A260 with salmon sperm DNA; 0 to 100 nM ACTC, 15.4 nM DNase-I) (DNase-I) was 15.3 nM.
